Measurements taken from PMC5507356, “Characterization of the molecular chaperone ClpB from the pathogenic spirochaete Leptospira interrogans” (PLoS ONE, 2017).

Molecular target: the molecule itself
Experiment: AUC; sedimentation velocity, 1.2 mg/ml ClpBLi with 2 mM ATPγS, 20°C, 50 mM Tris-HCl pH 7.5, 200 mM KCl, 20 mM MgCl2, 1 mM EDTA, 2 mM β-mercaptoethanol, 5% glycerol

B1: ClpB from Leptospira interrogans (ClpBLi), recombinant (natural protein)
chain: not shown
notes: Chaperone protein ClpB, Leptospira interrogans; intact protein runs at ~100 kDa; Monomer without nucleotide, hexamer with ATPγS; source: E. coli BL21(DE3), purified (Co-NTA IMAC, Superdex 200 gel filtration); not shown: His6, N-terminal, cleaved
stoichiometry N: 6
